Experimental data reported in the supplement of paper PMC9170038.

Experiments:
MS2 coat protein [1] = test: apparent KD of MS2 coat protein, switch ON state; designed switch direction (-1 OFF switch, 1 ON switch): -1; higher = weaker reporter binding; settings: FMN input: 0 or 200 uM; Eterna round: R93 (includes R88 designs)
In short: (§1)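 Apparent KD was obtained for each design as the median of normalised binding-curve fits over its clusters. RNA switches transcribed on-chip from Illumina sequencing clusters were titrated with SNAP-549-labelled MS2 coat protein (twofold steps, 0.7 or 1.5 nM to 3 µM) in 100 mM Tris-HCl pH 7.5, 80 mM KCl, 4 mM MgCl2, without or with constant ligand.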

MS2 coat protein [2] = test: apparent KD of MS2 coat protein, switch OFF state (with FMN for OFF switches, without FMN for ON switches); designed switch direction (-1 OFF switch, 1 ON switch): -1; higher = weaker reporter binding; settings: FMN input: 0 or 200 uM; Eterna round: R93 (includes R88 designs)
In short: as §1

Row | Sequence | apparent KD of MS2 coat protein (MS2 coat protein [1]) | apparent KD of MS2 coat protein (MS2 coat protein [2])
1 | AGCUGGUUAGGAUAUACAUGAGGAUCACCCAUGUUAAAAAAAAAAAAAAGAUUAAAGUGUAGAAGGGAUUAGUA [Banishment 9 - Jieux - Exclusion 3] | 29.3 nM | 34.4 nM
2 | AGGAAACAUGAGGAUCACCCAUGUUAGGAUAUGAACGAAAUAAAAUAAAAAUAAAAGUUCAGAAGGAACAAAAA [Mat - Exclusion 1 - Eli mod - D19] | 28.2 nM | 41.3 nM
3 | AGGAACCUAGGAUAUACAUGAGGAUCACCCAUGUCACGAGUCAAACACAGGUAUCCUAGUAGAAGGAGGAACAC [Inlaveor] | 22 nM | 42.1 nM
4 | AGGGAACAUGAGGAUCACCCAUGUGAGGAUAUAGAAAAGAAAAGAAAAGAAAGAAGAACUAGAAGGUACAAGAA [Merenre Nemtyemsaf I] | 26.1 nM | 30 nM
5 | AGGGAGUAAGGAUAUCGGAAAGGACACGAAAGUGACAAAGACGAGAAGGUACAUGAGGAUCACCCAUGUAAAAA [milkweed 24] | 32.2 nM | 21.6 nM
6 | AGGGAGUGAGGAUAUGCGAAAGAAAAAGAAAAAAAAAAAAAGCAGAAGGUACAUGAGGAUCACCCAUGUAAAAA [milkweed 6] | 29.8 nM | 29.1 nM
7 | AGGGUACAUGAGGAUCACCCAUGUUAGGAUAUAGAAAAGAAAAGAAAAGAAAGAAGAACUAGAAGGGACAAGAA [Unas] | 34.8 nM | 41.3 nM
8 | AGUCAGAGAGGAUAUACAUGAAAAAAAAAAGUAAGAUCCCUACAUGAGGAUCACCCAUGUAGAAGGCUCUGACA [Ex2 Design 137: Sub-opt 1] | 60.5 nM | 26.8 nM
9 | AGUCAUACAGGAUAUACAUGAGGAUCACCCAUGUAAAUCCUAAAAAGAAAAAAAUCAUGUAGAAGGGUAUGACA [EX3 224: Super Stable 24] | 13 nM | 17.2 nM
10 | AGUCUGAGAGGAUAUACAUAGGAAAAAAAAGUAAGAUCCCUACAUGAGGAUCACCCAUGUAGAAGGCUCUGACA [Ex2 Design 142: Sub-opt 6] | 46.9 nM | 67.7 nM
11 | AGUGAGUGAGGAUAUCCCUGAAGAAUAAAAGAAAUAACGAGGGAGAAGGCACAUGAGGAUCACCCAUGUACACA [May 64] | 30.6 nM | 24.8 nM
12 | AGUUGGCGAGGAUAUACAUGAGGAUCACCCAUGUGAGAGAUAAAAGUGAGAAAGAAAAGUAGAAGGCGCUCACA [JL Lego Mod 15] | 107 nM | 60.1 nM
13 | AGUUGGCGAGGAUAUACAUGAGGAUCACCCAUGUGAGAGUAAAAAGUGAGAAAGAAAAGUAGAAGGCGCUCACA [JL Lego Mod 14] | 77.5 nM | 46.3 nM
14 | AUAAAACAUGAGGAUCACCCAUGUGAGGAUAUGCGAAAUAAUGAAUAAAGAAAUAAAAGCAGAAGGCACAAAAA [LROPPY Exclusion 1 - v05_deltaG=1.64 break up some As mixed] | 32.8 nM | 28.9 nM
15 | AUAAAGACAGGAUAUACAUGAGGAUCACCCAUGUAAAAAAAAAAAUGAUCCUCAAAAAGUAGAAGGGUCAAUAA [JR_Exc003_Sub015] | 78.7 nM | 155 nM
16 | AUAGGCCUAGGAUAUACAUGAGGAUCACCCAUGUAAACCGAUAGAUCACGGUAAACGAGUAGAAGGAGGAAUAA [JR_Exc003_Sub208] | 26.5 nM | 30.3 nM
17 | AUGUACCUAGGAUAUACAUGAGGAUCACCCAUGUAUUGGGAGCAAUCAAGUUAAUAUUGUAGAAGGAGGUGAAA [JR_Exc003_Sub316] | 25.7 nM | 67.9 nM
18 | CAAAGGUGAGGAUAUACAAGGAUAUGACGAAAGUCAUAAAAACAUGAGGAUCACCCAUGUAGAAGGCACCACAA [E2 64% 4] | 33.9 nM | 43.7 nM
19 | CAAAGGUGAGGAUAUGCAUAACUAUGACGAAAGUCAUAAACACAUGAGGAUCACCCAUGUAGAAGGCGCCACAA [e2-3] | 78.8 nM | 57.2 nM
